Laboratory results reported in US6200577A, “Anti-herpesviral agents and assays therefor” (priority 1996, dated 2001).

Molecular target: T1, VP16/VP22trunc interaction (Human herpesvirus 1, UniProt P06492)
T1 construct: Plasmid pETVP16 was used to express full-length VP16 under the control of the T7 RNA polymerase promoter; made in house; host or cells: E. coli BL21(DE3)
Test: Co-purification of VP16 with VP22trunc on Ni-NTA resin in presence of peptides
Assay type: binding, HSV-1
Settings: for Co-elution of VP16 with VP22trunc from Ni-NTA resin after incubation with peptide: crude peptide at 2 mg/ml (about 1 mM), equal volume mixed with partially purified VP16 extract before VP22trunc; for Inhibition of VP16 co-elution with VP22trunc, peptides purified to homogeneity: peptides purified by reverse phase HPLC, data not shown
Experimental: FIG. 4 Co-elution of VP16 with VP22trunc from Ni-NTA resin. Partially purified extract containing VP16 was incubated in the absence of (lane 14) or presence of […] of VP22trunc (lanes 3 to 13). In lanes 3 to 12, an equal volume of the individual peptides at 2 mg/ml was added to the extract prior to VP22trunc. Peptides added to each reaction were as follows: lane 3, peptide A; lane 4, peptide B; lane 5, peptide C; lane 6, peptide D; lane 7, peptide E; lane 8, peptide F; lane 9, peptide G; lane 10, peptide H; lane 11, peptide I; lane 12, peptide J; lane 13, no peptide. Lanes 3 to 14 show the polypeptides eluted from Ni-NTA resin. Other samples were as follows: lane 1, partially purified VP16 extract, lane 2, purified VP16; lane 15, purified VP22trunc. Samples were electrophoresed on a 12% polyacrylamide gel and the apparent molecular weights of VP16 (65 KDa) and VP22trunc (16 KDa) are shown.
Co-purification of VP16 with VP22trunc on Ni-NTA Resin. Purified VP22trunc and a partially purified extract containing VP16, both in 20 mM Tris-HCl, pH8.0, 250 mM NaCl, were mixed at 4° C. for 15 to 30 minutes on a rotator. 50 μl of equilibrated Ni-NTA resin was added to each mixture and incubation was continued at 40C for a further 15 to 30 minutes. Resin was pelleted at 800 g for 1 minute and the supernatant (non-bound fraction) was removed. Resin was washed sequentially with 0.5 ml of 20 mM Tris-HCl, pH 8.0, 250 mM NaCl, 5 mM imidazole (twice) and 0.5 ml of 20 mM Tris-HCl, pH 8.0, 250 mM NaCl, 60 mM imidazole (four times). Bound protein was eluted by addition of 50 μl of boiling mix (160 mM Tris-HCl, pH 6.7, 2% SDS, 700 mM β-mercaptoethanol, 10% glycerol, 0.002% bromophenol blue) followed by heating to 100° C. for 5 minutes. For peptide studies, peptides were dissolved in 20 mM Tris-HCl, pH8.0, 250 mM NaCl at a concentration of 2 mg/ml. Incubation of peptides with partially purified VP16 extracts was performed at ambient temperature for 2 hours prior to the addition of VP22trunc. Samples were electrophoresed on denaturing polyacrylamide gels.
Results presented in Section 2(i) had shown that VP16 co-elutes from Ni-NTA resin in the presence of VP22trunc and it was concluded that this indicated interaction between these polypeptides. The ability of synthetic peptides to inhibit this interaction was analysed by mixing them individually with the partially purified VP16 extract prior to addition of VP22trunc. From the intensity of the 65 KDa species in the crude extract (FIG. 4, lane 2), it was estimated that the concentration of VP16 was approximately […]. To ensure that experiments were performed in an excess of peptide, peptides were prepared at a concentration of 2 mg/ml (about 1 mM) and equal volumes of peptide and extract were mixed. This gave a relative molar ratio of VP16 to peptide of 1:300. However, it should be noted that certain peptides were not completely soluble (Table 1) and in those cases, the ratio would be reduced.

T1 sequence (P06492 whole entry): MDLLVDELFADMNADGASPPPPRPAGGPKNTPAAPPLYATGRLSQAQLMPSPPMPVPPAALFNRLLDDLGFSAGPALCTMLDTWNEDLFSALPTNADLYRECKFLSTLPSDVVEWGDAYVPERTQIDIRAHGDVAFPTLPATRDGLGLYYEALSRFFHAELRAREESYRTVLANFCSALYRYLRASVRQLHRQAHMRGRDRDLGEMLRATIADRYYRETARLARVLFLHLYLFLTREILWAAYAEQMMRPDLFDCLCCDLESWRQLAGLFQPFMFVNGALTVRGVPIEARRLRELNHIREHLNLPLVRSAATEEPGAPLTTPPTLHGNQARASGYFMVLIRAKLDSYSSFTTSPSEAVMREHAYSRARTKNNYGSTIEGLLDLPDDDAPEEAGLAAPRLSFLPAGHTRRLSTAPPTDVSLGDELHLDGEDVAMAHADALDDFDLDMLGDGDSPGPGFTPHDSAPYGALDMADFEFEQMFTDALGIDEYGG

Sequence | Co-elution of VP16 with VP22trunc from Ni-NTA resin after incubation with peptide | Inhibition of VP16 co-elution with VP22trunc, peptides purified to homogeneity
CAAVGRLAAMHARMAAVQLW [Peptide E] | failed to co-elute | inhibitory capabilities were retained
TPRVAGFNKRVFCAAVGRLA [Peptide D] | reduced amounts | inhibitory capabilities were retained
